Measurements as given in paper PMC10099132, “Sequence and Structural Motifs Controlling the Broad Substrate Specificity of the Mycobacterial Hormone-Sensitive Lipase LipN” (ACS Omega, 2023).

Legend:
Assay in all cases: purified protein, by the assay type
[1] = substrate: N#CC1(C(=O)OCOc2ccc3c(c2)Oc2cc(OCOC(=O)C4(C#N)CC4)ccc2C32OC(=O)c3ccccc32)CC1; design: fluorogenic ester hydrolysis, fluorescein release, Michaelis-Menten fit of initial rates
Description: (§1) The enzyme kinetic activity of LipN was assayed via the hydrolysis of the fluorogenic substrates (Figure 1) in accordance with past kinetic analysis of mycobacterial serine hydrolases.[37],[38],[40],[66],[67] Kinetic assays were run in triplicate on black 96-well plates in a Synergy H1 Hybrid Reader (BioTek). Fluorogenic ester substrates (10 mM in DMSO) were diluted to a starting concentration of 100 μM in PBS containing acetylated BSA (Sigma; 0.1 mg/mL). Eight serial dilutions (1:1; 120 μL into 240 μL total volume) of each substrate were made using PBS–BSA. Fluorogenic substrate dilutions (95 μL) were then transferred to opaque 96-well microplate (Corning, Lowell, MA). Reactions were initiated by quickly adding enzyme (5 μL, 3.0 nM final concentration) to each assay well, mixed, and the fluorescence counts measured every 26–30 s for 4.5 min with a BioTek H1 Synergy multimode plate reader (Biotek Instruments; Winooski, VT) at ambient temperature. The instrument measured relative fluorescence through excitation at λ = 485 nm and emission at λ = 520 nm. The fluorescence change was converted to molar concentrations using a fluorescein standard curve (300–2.3 nM), whose fluorescence was measured simultaneously. The initial rates of the enzyme-catalyzed reactions were measured in triplicate and plotted versus fluorogenic substrate concentration. […] (A) Activation of fluorogenic ester substrates by MmLipN. Each of the substrates is composed of diacyloxymethyl ether fluorescein with varying R-groups. The differing R-groups have been organized into classes and colored based on chemical functionality. All of the substrates were synthesized as described previously.[38],[43] Substrates 6, 10–11, 14–15, 20, 23–30, and 33 were newly synthesized for this characterization of MmLipN. Detailed synthetic characterization is provided in the Supporting Information. (B) Global comparison of the catalytic specificity (kcat/KM) of MmLipN against each of the 33 substrates with ester classes labeled. Catalytic efficiency values (kcat/Km) are given ± SD based on at least three independent kinetic replicates. (C, D) Kinetic activity of MmLipN against high-activity ester substrates 1 (black circles), 7 (blue squares), and 20 (red diamonds) and low-activity ester substrates 12 (green circles), 16 (red squares), 27 (purple diamonds), and 31 (orange squares). Low- and high-activity substrates display classic Michaelis–Menten kinetics with MmLipN and activity above background hydrolysis rates. Traces colored based on ester classification from (A, B). All measurements were completed in at least triplicate and shown ± SD.

[2] = substrate: CCC(=O)OCOc1ccc2c(c1)Oc1cc(OCOC(=O)CC)ccc1C21OC(=O)c2ccccc21; design: fluorogenic ester hydrolysis, fluorescein release, Michaelis-Menten fit of initial rates
Description: as §1

[3] = substrate: CC1(C(=O)OCOc2ccc3c(c2)Oc2cc(OCOC(=O)C4(C)CC4(Cl)Cl)ccc2C32OC(=O)c3ccccc32)CC1(Cl)Cl; design: fluorogenic ester hydrolysis, fluorescein release, Michaelis-Menten fit of initial rates
Description: as §1

[4] = substrate: CC1(C)CC1C(=O)OCOc1ccc2c(c1)Oc1cc(OCOC(=O)C3CC3(C)C)ccc1C21OC(=O)c2ccccc21; design: fluorogenic ester hydrolysis, fluorescein release, Michaelis-Menten fit of initial rates
Description: as §1

[5] = substrate: COCC(=O)OCOc1ccc2c(c1)Oc1cc(OCOC(=O)COC)ccc1C21OC(=O)c2ccccc21; design: fluorogenic ester hydrolysis, fluorescein release, Michaelis-Menten fit of initial rates
Description: as §1

[6] = substrate: COCCOCCC(=O)OCOc1ccc2c(c1)Oc1cc(OCOC(=O)CCOCCOC)ccc1C21OC(=O)c2ccccc21; design: fluorogenic ester hydrolysis, fluorescein release, Michaelis-Menten fit of initial rates
Description: as §1

[7] = substrate: CC(=O)Oc1ccc([N+](=O)[O-])cc1; design: p-nitrophenyl ester hydrolysis, absorbance at 412 nm, Michaelis-Menten fit
From the text: (§2) (A) Classic p-nitrophenyl ester substrates were used as conformation for fluorogenic substrate measurements (Figure 1). (B) Catalytic efficiency comparison of MmLipN against p-nitrophenyl substrates. Catalytic efficiency values (kcat/Km) are given ± SD. (C, D) Kinetic activity of MmLipN against (C) short alkyl ester substrates: p-nitrophenyl acetate (C2) and p-nitrophenyl butyrate (C4) and (D) longer alkyl ester substrates: p-nitrophenyl valerate ([…]), p-nitrophenyl octonoate (C8), and p-nitrophenyl myristate (C14). Data points were fitted to the Michaelis–Menten equation and are shown ± SD.

[8] = substrate: CCCCCCCCCCCCCC(=O)Oc1ccc([N+](=O)[O-])cc1; design: p-nitrophenyl ester hydrolysis, absorbance at 412 nm, Michaelis-Menten fit
From the text: as §2

[9] = substrate: CCCCC(=O)Oc1ccc([N+](=O)[O-])cc1; design: p-nitrophenyl ester hydrolysis, absorbance at 412 nm, Michaelis-Menten fit
From the text: as §2

[10] = substrate: CCCCCCCC(=O)Oc1ccc([N+](=O)[O-])cc1; design: p-nitrophenyl ester hydrolysis, absorbance at 412 nm, Michaelis-Menten fit
From the text: as §2

B1: MmLipN (LipN from M. marinum) (Mycobacterium marinum M) (protein)
chain: MTNSLPGETDLHPETVHATMSWLSRVQNTVTVVGAKVIPWVPDVAKRLITRGRSVIIDGNTLDPALQLMLSGMRVVGLDGLVIDDDLAASRAHMREAMLGFPGPQIHVDVEELTLPGPAGDISARHYRPPGDAAAPLLVFYHGGGWALGDLDTHDAVCRLTCRDAGIHVLAIDYRLSPEDRAPAAIDDAFAAFEWAHAHAAELGALPGRVAVGGDSAGGNLAAVVSQLARDSGGPAPIFQWLIYPRTDFAGRTRSASLFARGFLLTKRDIDWFHSQYLKGSGIEPTDPRVSPLRAESLAGLAPALIAVAGFDPLRDEGENYATALRAAGTPVDLRAMGSLTHGFLNLFPLGGGCAAATSELISALRAHLTRV
notes: E. coli LOBSTR (DE3); Ni-NTA
- Km [1]: 1.7 ± 1.1 µM
- kcat [1]: 0.0012 ± 0.0018 s⁻¹
- kcat/Km [1]: 670 ± 590 M⁻¹ s⁻¹
- Km [2]: 4.2 ± 0.5 µM
- kcat [2]: 0.18 ± 0.06 s⁻¹
- kcat/Km [2]: 42000 ± 15000 M⁻¹ s⁻¹
- Km [3]: 0.87 ± 1.1 µM
- kcat [3]: 1.1e-05 ± 3e-05 s⁻¹
- kcat/Km [3]: 12 ± 19 M⁻¹ s⁻¹
- Km [4]: 1.7 ± 1.1 µM
- kcat [4]: 0.0011 ± 0.0018 s⁻¹
- kcat/Km [4]: 660 ± 590 M⁻¹ s⁻¹
- Km [5]: 2.6 ± 1.1 µM
- kcat [5]: 0.11 ± 0.12 s⁻¹
- kcat/Km [5]: 40000 ± 25000 M⁻¹ s⁻¹
- Km [6]: 21 ± 4 µM
- kcat [6]: 0.0005 ± 0.0004 s⁻¹
- kcat/Km [6]: 26 ± 11 M⁻¹ s⁻¹
- Km [7]: 2400 ± 1200 µM
- kcat [7]: 94 ± 8 s⁻¹
- kcat/Km [7]: 39000 ± 10000 M⁻¹ s⁻¹
- Km [8]: 120 ± 50 µM
- kcat [8]: 0.28 ± 0.02 s⁻¹
- kcat/Km [8]: 2300 ± 400 M⁻¹ s⁻¹
- Km [9]: 250 ± 70 µM
- kcat [9]: 15 ± 1 s⁻¹
- kcat/Km [9]: 59000 ± 8000 M⁻¹ s⁻¹
- Km [10]: 410 ± 330 µM
- kcat [10]: 1.1 ± 0.2 s⁻¹
- kcat/Km [10]: 2700 ± 1100 M⁻¹ s⁻¹
